Read-outs that look alike come from different tables or passages of the source.
Experiments:
[1] = target: recombinant gp120 of HIV-1 Lai (IIIB) (HIV-1 Lai (IIIB)) (UniProt P03377); assay: cell-based or functional assay
[2] = target: purified preparation of the V3 loop-BPs (P95/nucleolin, P40/PHAP II, P30/PHAP I) (human) (UniProt P19338); assay: BIAcore, V3 loop-BPs immobilized on CM5
[3] = target: purified preparation of the V3 loop-BPs (P95/nucleolin, P40/PHAP II, P30/PHAP I) (human) (UniProt P19338); assay: BIAcore, V3-BPs; row shifted one column to the left
[4] = target: purified preparation of the V3 loop-BPs (P95/nucleolin, P40/PHAP II, P30/PHAP I) (human) (UniProt P19338)
[5] = target: purified preparation of the V3 loop-BPs (P95/nucleolin, P40/PHAP II, P30/PHAP I) (human) (UniProt P19338); assay: BIAcore, V3-BPs
[6] = target: P95/nucleolin (human) (UniProt P19338); assay: FACS on MOLT4 cells, no protease; target TASP-Ligand [sic]
[7] = target: P30/PHAP I (human) (UniProt P39687); assay: saturation of the binding sites, method not stated
[8] = target: P95/nucleolin (human) (UniProt P19338); assay: saturation of the binding sites, method not stated
[9] = target: P40/PHAP II (human) (UniProt Q01105); assay: saturation of the binding sites, method not stated
[10] = target: P95/nucleolin (human) (UniProt P19338); assay: FACS on MOLT4 cells after pronase E; target TASP-Ligand [sic]
[11] = target: P95/nucleolin (human) (UniProt P19338); assay: FACS on MOLT4 cells after trypsin; target TASP-Ligand [sic]
[12] = target: P95/nucleolin (human) (UniProt P19338); assay: FACS on MOLT4 cells after proteinase K; target TASP-Ligand [sic]
[13] = target: P95/nucleolin (human) (UniProt P19338); assay: FACS on CEM cells with biotin-labeled construct; target printed as TASP-ligand
[14] = target: P95/nucleolin (human) (UniProt P19338); assay: cell-based or functional assay
[15] = target: P95/nucleolin (human) (UniProt P19338); assay: competition: 50 µM unlabeled 5[KPR]-TASP against 5 µM biotin-labeled 5[Kψ(CH2N)PR]-TASP on CEM cells
[16] = target: purified preparation of the V3 loop-BPs (P95/nucleolin, P40/PHAP II, P30/PHAP I) (human) (UniProt P19338); assay: inhibition of gp120 binding to the V3 loop-BPs; competitor gp120
[17] = target: purified preparation of the V3 loop-BPs (P95/nucleolin, P40/PHAP II, P30/PHAP I) (human) (UniProt P19338); assay: BIAcore, purified V3-BPs
[18] = target: purified preparation of the V3 loop-BPs (P95/nucleolin, P40/PHAP II, P30/PHAP I) (human) (UniProt P19338); assay: BIAcore, V3 loop-BPs
[19] = target: recombinant soluble CD4 (UniProt P01730); assay: BIAcore, soluble CD4; row shifted one column to the left
[20] = target: CD4 (cellular, CEM and MOLT4 cells) (human) (UniProt P01730); assay: FACS on MOLT4 cells after trypsin
[21] = target: purified preparation of the V3 loop-BPs (P95/nucleolin, P40/PHAP II, P30/PHAP I) (human) (UniProt P19338); remark: listed apart in the source
[22] = target: CD4 (cellular, CEM and MOLT4 cells) (human) (UniProt P01730); assay: FACS on MOLT4 cells, no protease
[23] = target: CD4 (cellular, CEM and MOLT4 cells) (human) (UniProt P01730); assay: FACS on MOLT4 cells after proteinase K
[24] = target: CD4 (cellular, CEM and MOLT4 cells) (human) (UniProt P01730); assay: FACS on MOLT4 cells after pronase E
[25] = target: CD4 (cellular, CEM and MOLT4 cells) (human) (UniProt P01730); assay: cell-based or functional assay
[26] = target: CD26 (on MOLT4 cells) (human) (UniProt P27487); assay: FACS on MOLT4 cells after trypsin
[27] = target: CD26 (on MOLT4 cells) (human) (UniProt P27487); assay: FACS on MOLT4 cells, no protease
[28] = target: CD26 (on MOLT4 cells) (human) (UniProt P27487); assay: FACS on MOLT4 cells after proteinase K
[29] = target: CD26 (on MOLT4 cells) (human) (UniProt P27487); assay: FACS on MOLT4 cells after pronase E

Sequence of P95/nucleolin (human) (P19338 2-710 limits assumed): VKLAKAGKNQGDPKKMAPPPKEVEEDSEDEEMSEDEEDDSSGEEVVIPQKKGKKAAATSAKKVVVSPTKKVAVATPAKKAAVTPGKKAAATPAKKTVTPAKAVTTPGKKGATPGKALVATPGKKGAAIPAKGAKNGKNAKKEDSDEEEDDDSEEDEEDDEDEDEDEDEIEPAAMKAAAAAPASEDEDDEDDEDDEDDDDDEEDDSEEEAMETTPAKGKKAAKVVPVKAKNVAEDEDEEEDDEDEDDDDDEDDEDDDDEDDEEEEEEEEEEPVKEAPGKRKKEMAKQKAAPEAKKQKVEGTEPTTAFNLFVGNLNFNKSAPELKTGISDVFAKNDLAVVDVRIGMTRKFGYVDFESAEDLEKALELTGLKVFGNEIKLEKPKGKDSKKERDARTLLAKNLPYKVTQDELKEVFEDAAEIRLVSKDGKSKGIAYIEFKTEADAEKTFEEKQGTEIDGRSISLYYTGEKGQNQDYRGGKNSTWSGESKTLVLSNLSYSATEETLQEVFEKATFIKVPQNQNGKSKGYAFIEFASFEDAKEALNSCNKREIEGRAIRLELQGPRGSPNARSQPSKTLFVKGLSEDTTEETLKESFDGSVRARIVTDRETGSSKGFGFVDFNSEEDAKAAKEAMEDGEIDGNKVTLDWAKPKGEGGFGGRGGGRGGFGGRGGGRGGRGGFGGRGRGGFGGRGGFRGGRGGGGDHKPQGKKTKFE
Sequence of P40/PHAP II (human) (Q01105 other isoform, or with tags, fused parts or gaps limits assumed): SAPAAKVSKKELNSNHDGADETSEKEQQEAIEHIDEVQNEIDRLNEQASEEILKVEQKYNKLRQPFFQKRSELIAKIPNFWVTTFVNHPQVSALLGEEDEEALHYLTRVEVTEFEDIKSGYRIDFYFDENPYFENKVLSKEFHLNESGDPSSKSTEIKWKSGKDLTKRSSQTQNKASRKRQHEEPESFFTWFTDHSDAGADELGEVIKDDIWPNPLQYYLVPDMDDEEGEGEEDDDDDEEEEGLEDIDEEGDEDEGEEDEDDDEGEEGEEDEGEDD

Q: Which inhibition of HIV-1 Lai infection of CEM cells, multiple cycles, p24 at 5 days, 10 µg/ml [1] does the source give for “purified preparation of the V3 loop-BPs (P95/nucleolin, P40/PHAP II, P30/PHAP I) (from UniProt P19338 2-710; Q01105 2-277; P39687 1-249)” here?
A: The inhibition of HIV-1 Lai infection of CEM cells, multiple cycles, p24 at 5 days, 10 µg/ml was 91%.

Q: And the inhibition of single cycle HIV-1 infection of CEM cells [1]?
A: The inhibition of single cycle HIV-1 infection of CEM cells was greater than 80%.

Q: Which results are given for “recombinant gp120 of HIV-1 Lai (IIIB) (from UniProt P03377 33-516) (ligand)”?
A: Ka [2]: 2.1e+08 M⁻¹; koff [2]: 0.0021 s⁻¹; kon [2]: 440000 M⁻¹ s⁻¹; Ka [3]: 2.1e+08 M⁻¹; koff [3]: 0.0021 s⁻¹; kon [3]: 440000 M⁻¹ s⁻¹; IC50 [4]: 3 nM

Q: Which Ka [5] does the source give for 5[Kψ(CH2N)PR]-TASP (peptide) here?
A: The Ka was 9.61e+09 M⁻¹.

Q: What about the Ka [2] of the same substance?
A: The Ka was 9.61e+09 M⁻¹.

Q: And the % positive cells [6]?
A: Its % positive cells is 100%.

Q: And the concentration giving 100% saturation of the binding sites [7]?
A: Its concentration giving 100% saturation of the binding sites is 8 µM.

Q: And the concentration giving 100% saturation of the binding sites [8]?
A: Its concentration giving 100% saturation of the binding sites is 2 µM.

Q: What about the concentration giving 100% saturation of the binding sites [9] of the same substance?
A: The concentration giving 100% saturation of the binding sites was 4 µM.

Q: And the % positive cells [10]?
A: Its % positive cells is 8%.

Q: What about the % positive cells [11] of the same substance?
A: The % positive cells was 92%.

Q: What about the % positive cells [12] of the same substance?
A: Its % positive cells is 15%.

Q: What about the EC50 [13] of the same substance?
A: The EC50 was 150 nM.

Q: What about the IC50 of HIV entry (β-galactosidase), HeLa P4, HIV-1 Lai [14] of the same substance?
A: Its IC50 of HIV entry (β-galactosidase), HeLa P4, HIV-1 Lai is 0.5 µM.

Q: What about the IC50 of HIV entry (β-galactosidase), HeLa P4-C5, HIV-1 Bal [14] of the same substance?
A: The IC50 of HIV entry (β-galactosidase), HeLa P4-C5, HIV-1 Bal was 0.8 µM.

Q: And the IC50 of HIV entry (β-galactosidase), HeLa P4-C5, HIV-1 UGO29A [14]?
A: Its IC50 of HIV entry (β-galactosidase), HeLa P4-C5, HIV-1 UGO29A is 0.3 µM.

Q: And the IC50 of HIV entry (β-galactosidase), HeLa P4-C5, HIV-2 ROD [14]?
A: Its IC50 of HIV entry (β-galactosidase), HeLa P4-C5, HIV-2 ROD is 0.4 µM.

Q: What about the Inhibition of HIV infection (IC50), HIV-1 in CEM cells, p24 at 4 days [14] of the same substance?
A: Its Inhibition of HIV infection (IC50), HIV-1 in CEM cells, p24 at 4 days is 0.5 µM.

Q: With 5[KPR]-TASP (peptide) as the substance, how does the % of P95 recovery abolished [15] read?
A: The % of P95 recovery abolished was 40 to 50%.

Q: What about the Ka [2] of the same substance?
A: Its Ka is 1.5e+08 M⁻¹.

Q: And the koff [2]?
A: Its koff is 0.0024 s⁻¹.

Q: What about the kon [2] of the same substance?
A: Its kon is 350000 M⁻¹ s⁻¹.

Q: What about the IC50 [16] of the same substance?
A: Its IC50 is 300 nM.

Q: What about the Ka [3] of the same substance?
A: The Ka was 1.5e+08 M⁻¹.

Q: And the koff [3]?
A: The koff was 0.0024 s⁻¹.

Q: What about the kon [3] of the same substance?
A: Its kon is 350000 M⁻¹ s⁻¹.

Q: And the EC50 [13]?
A: The EC50 was 3500 nM.

Q: What about the Inhibition of HIV infection (IC50), HIV-1 in CEM cells, p24 at 4 days [14] of the same substance?
A: Its Inhibition of HIV infection (IC50), HIV-1 in CEM cells, p24 at 4 days is 5 µM.

Q: synthetic V3 loop peptide of HIV-1 Lai was tested. Which Ka [17] did it give?
A: The Ka was 5.1e+06 M⁻¹.

Q: And the fold affinity against the V3 loop of the macrophage-tropic isolate [17]?
A: Its fold affinity against the V3 loop of the macrophage-tropic isolate is greater than 3 fold.

Q: With “nonglycosylated gp120 of HIV-1 SF2 (Env 2-3) (from UniProt P03378 32-509) (ligand)” as the substance, how does the Ka [2] read?
A: The Ka was 1.6e+08 M⁻¹.

Q: And the koff [2]?
A: The koff was 0.0024 s⁻¹.

Q: What about the kon [2] of the same substance?
A: Its kon is 380000 M⁻¹ s⁻¹.

Q: What about the Ka [3] of the same substance?
A: The Ka was 1.6e+08 M⁻¹.

Q: And the koff [3]?
A: The koff was 0.0024 s⁻¹.

Q: What about the kon [3] of the same substance?
A: Its kon is 380000 M⁻¹ s⁻¹.

Q: What about the fold reduction of affinity against glycosylated gp120 SF2 [18] of the same substance?
A: The fold reduction of affinity against glycosylated gp120 SF2 was 10 fold.

Q: Which Ka [19] does the source give for “recombinant gp120 of HIV-1 Lai (IIIB) (from UniProt P03377 33-516) (ligand; other documents disagree on this pair)” here?
A: The Ka was 1.08e+09 M⁻¹.

Q: What about the koff [19] of the same substance?
A: The koff was 0.0545 s⁻¹.

Q: And the kon [19]?
A: Its kon is 588000 M⁻¹ s⁻¹.

Q: For mAb OKT4A (antibody), which % positive cells [20] is on record?
A: The % positive cells was 24%.

Q: What about the ELISA OD 450 nm [21] of the same substance?
A: Its ELISA OD 450 nm is 0.2 OD 450 nm.

Q: What about the % positive cells [22] of the same substance?
A: Its % positive cells is 100%.

Q: What about the % positive cells [23] of the same substance?
A: The % positive cells was 6%.

Q: What about the % positive cells [24] of the same substance?
A: Its % positive cells is 9%.

Q: And the inhibition of binding of HIV-1 particles to CEM cells (p24 in cell lysates) [25]?
A: The inhibition of binding of HIV-1 particles to CEM cells (p24 in cell lysates) was 75%.

Q: How did the % positive cells [26] turn out when mAb Ta1 (antibody) was run?
A: Its % positive cells is 100%.

Q: And the % positive cells [27]?
A: The % positive cells was 100%.

Q: What about the % positive cells [28] of the same substance?
A: Its % positive cells is 98%.

Q: What about the % positive cells [29] of the same substance?
A: Its % positive cells is 97%.

Q: How did the Ka [2] turn out when “recombinant gp120 of HIV-1 MN (from UniProt P05877 32-513) (ligand)” was run?
A: The Ka was 4.3e+08 M⁻¹.

Q: And the koff [2]?
A: Its koff is 0.00044 s⁻¹.

Q: And the kon [2]?
A: Its kon is 190000 M⁻¹ s⁻¹.

Q: And the Ka [3]?
A: The Ka was 4.3e+08 M⁻¹.

Q: And the koff [3]?
A: Its koff is 0.00044 s⁻¹.

Q: What about the kon [3] of the same substance?
A: Its kon is 190000 M⁻¹ s⁻¹.

Q: What does the source list for “5[Kψ(CH2N)PR]-TASP with dehydroxyproline in place of proline (peptide)”?
A: IC50 of HIV entry (β-galactosidase), HeLa P4, HIV-1 Lai [14]: 0.1 µM; IC50 of HIV entry (β-galactosidase), HeLa P4-C5, HIV-1 89.6 [14]: 0.3 µM; IC50 of HIV entry (β-galactosidase), HeLa P4-C5, HIV-1 Bal [14]: 0.3 µM; IC50 of HIV entry (β-galactosidase), HeLa P4-C5, HIV-1 JRCSF [14]: 0.3 µM; IC50 of HIV entry (β-galactosidase), HeLa P4-C5, HIV-1 Lai [14]: 0.1 µM; IC50 of HIV entry (β-galactosidase), HeLa P4-C5, HIV-2 CBL [14]: 2 µM; IC50 of HIV entry (β-galactosidase), HeLa P4-C5, HIV-2 ROD [14]: 0.2 µM

Q: Which Ka [17] does the source give for synthetic V3 loop peptide of HIV-1 Ba-L here?
A: The Ka was 1.5e+06 M⁻¹.

Q: “recombinant gp120 of HIV-1 SF2 (from UniProt P03378 32-509) (ligand)” was tested. Which Ka [2] did it give?
A: The Ka was 2.32e+09 M⁻¹.

Q: And the koff [2]?
A: The koff was 2.8e-05 s⁻¹.

Q: What about the kon [2] of the same substance?
A: The kon was 65000 M⁻¹ s⁻¹.

Q: And the Ka [3]?
A: The Ka was 2.32e+09 M⁻¹.

Q: And the koff [3]?
A: The koff was 3e-05 s⁻¹.

Q: And the kon [3]?
A: The kon was 65000 M⁻¹ s⁻¹.
